Results as given in PMC5399293, “Hierarchical assembly of centriole subdistal appendages via centrosome binding proteins CCDC120 and CCDC68” (Nature Communications, 2017).

Target: T1, MBP-hNinein-N (1–480 aa) (human, UniProt Q8N4C6 1-480)
T1 construct: human Ninein residues 1-480; also called purified 1–480 aa of hNinein
T1 sequence (looked up): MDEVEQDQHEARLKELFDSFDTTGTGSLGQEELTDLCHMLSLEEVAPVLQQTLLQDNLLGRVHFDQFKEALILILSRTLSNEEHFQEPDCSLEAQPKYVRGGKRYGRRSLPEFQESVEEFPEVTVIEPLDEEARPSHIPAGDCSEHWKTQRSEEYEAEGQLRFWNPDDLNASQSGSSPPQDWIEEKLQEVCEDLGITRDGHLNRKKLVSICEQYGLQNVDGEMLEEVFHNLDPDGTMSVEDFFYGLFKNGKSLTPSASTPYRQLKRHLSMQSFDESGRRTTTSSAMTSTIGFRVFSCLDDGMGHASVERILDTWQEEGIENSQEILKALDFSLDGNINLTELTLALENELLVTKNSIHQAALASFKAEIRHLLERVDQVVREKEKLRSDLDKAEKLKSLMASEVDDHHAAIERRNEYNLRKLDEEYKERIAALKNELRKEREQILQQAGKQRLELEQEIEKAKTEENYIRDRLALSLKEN
Assay: pull-down; in vitro binding: purified GST-CCDC120 (1–320 aa) incubated with amylose resin beads coated with MBP fusions, 4 °C; immunoblot with anti-GST
Details: both partners purified

binding result: binds
B1: GST-tagged CCDC120 (1–320 aa) (domain or fragment, human, UniProt Q96HB5-1 1-320, looked up)
chain: MEVKGQLISSPTFNAPAALFGEAAPQVKSERLRGLLDRQRTLQEALSLKLQELRKVCLQEAELTGQLPPECPLEPGERPQLVRRRPPTARAYPPPHPNQAHHSLCPAEELALEALEREVSVQQQIAAAARRLALAPDLSTEQRRRRRQVQADALRRLHELEEQLRDVRARLGLPVLPLPQPLPLSTGSVITTQGVCLGMRLAQLSQEDVVLHSESSSLSESGASHDNEEPHGCFSLAERPSPPKAWDQLRAVSGGSPERRTPWKPPPSDLYGDLKSRRNSVASPTSPTRSLPRSASSFEGRSVPATPVLTRGAGPQLCKP
notes: human CCDC120 (NM_001271836.1) residues 1-320; also called GST-CCDC120 (1–320 aa); 1–320 aa of CCDC120
